Measurements taken from the DeepSol protein solubility set.

Test: soluble on expression in E. coli; label from the status in PepcDB or PDB records
With “MGSDKIHHHHHHLAKRKNHAQAIETTGANLGFEPQLWQTANALRGSMDAAEYKHVVLGLIFLKYISDAFEEHRERLQNIPNADPEDPDEYRADNVFWVPPDARWVELRNNARQPNIGELIDQAMIAVERDNPSLKGVLPKDYARPALDQQRLGQLIDLVSNIPVGTASARSKDVLGRVYEYFLSQFASAEGKKGGEFYTPRCVVRLLVEMLEPYQGRVYDPCCGSAGMFIQSVEFIEAHATGNGNGSRARARISIYGQELNYTTWRLAKMNLAIRGIDGRIEQGDTFRNDRFPDLKADYILANPPFNMKEWGGEQLRNDKRWQYGIPPVGNANFAWVQHIVHHLAPAGVAGFVLANGSMSSNQSGEGEIRRKLIEADLVDCMVALPGQLFYSTQIPACLWFLARNRNNGKFRDRRKQILFIDARRLGRMVDRIHRELTDEEIERIACTYHAWRGESDAGEYRDIPGFCKSASLEDVRKHGYVLTPGRYVGSEVREDDDEPFAEKMQWLVAQLREQQAEAAKLDEAIVANLQELGFWEQKR” the “soluble on expression in E. coli” value was “not soluble”. In the case of “MGSDKIHHHHHHLAQLYFYYSAMNAGKSTSLLQSSYNYRERGMNTLVLTAAIDDRYGVGKVASRIGIQADATVFGSEDNLMDLIATHHSQQQLHCVLVDESQFLSKTQVRQLTDVVDKLDIPVLCYGLRSDFRGELFIGSQYLLAWADKLVELKTICFCGRKANMVVRRDGAGNPVRDGAQVAIGGNESYESMCRKHFSELVWD”, the “soluble on expression in E. coli” value is reported as “not soluble”. In the case of “MGSDKIHHHHHHLDLAPEDYYGAGNFWKEASQPKAFMLGLHAQLRSYYDMFYTLGELRGGTQRVGTSSLNTSLNYADIRSQNISEDIPGISNWNGLYSPIMQVNHFIQEVENGCTFLDDATRSRYLGQAYGMRALYYFMLYRTFGGVPLITKVDILDGKPSADKFYVERATPEATMEFIKADINKSENYFGNNTSFDAYDWSRYATLMLKAEIYMWAAKVSITGFTATGATDLQTAKTALSGIIGHFELMDNFASIFSCDNKKNTEIIFAMPFIEGEASNDGGRFLYQDAVFLGQAYGRNGKVIEKDTLNLKGTGGVFRDEYTEDFWKTFKEGDSRRDATFMEYYMKNDNGTLSEFGCVMKKRIGTINSNDNRIYISDIPVYRYADALLMMAEIENGLNNPCASYINEVRKRAYGDTFEENKYTEGSYAENELAILQERDKEFVSEGKRWFDVLRMHDASGRSLVFSANANYPGTNPILGTEEAYKMLWPVNIGTLNVNPLLTQTPGYGKK”, the “soluble on expression in E. coli” value is reported as “not soluble”. For “MGSDKIHHHHHHLDTIPTTYVDAGSVFGKTGDAEKVLNGGWNYLMETFNSYANPGYGAMLRANDAMGSDVVLNSKYGFRTHNEFSAIYGKGGTNTLSWLLAYRVINDCNGVLDNIDAAEGTQADRNRIKGQALALRGFLYLHLASCYSFAIDKDPDAVCAPIYTQSTDETIAAEGKPASSVSEVYAQSINDLEEALELIPETYVRDAKHKIDNEVVLGILSRACLYARQWEKAKTYSDKLLAKDNYLMTESEYKAGFNSVDNKEWIWGHAQTNDQSNASYQFHYLDTTTKGSYYYSFNVDPYFRDLFEDGDYRKEMLFWATDPGADVESAAYVWMRNSKFRFRDIENQLGDIVLMRVAEIYLINAEAKAHLNDPDAINKLNDLKTARGAKTIHTNLSQQDLLETIWLERRKELWGEGFSLIDIIRNQQTVVRNAYPEGPIDYIYTDENGQTHTLKKKTQGHRFFNFPDKSAFCPNSKYYLYRITDSEELANKNLYKDHPKLSIYTK”, the “soluble on expression in E. coli” value was “not soluble”. In the case of “MGSDKIHHHHHHLKSAEGSTWNCCPIDWRAFQSNCYFPLTDNKTWAESERNCSGMGAHLMTISTEAEQNFIIQFLDRRLSYFLGLRDENAKGQWRWVDQTPFNPRRVFWHKNEPDNSQGENCVVLVYNQDKWAWNDVPCNFEASRICKIPGTTLN”, the “soluble on expression in E. coli” value is reported as “not soluble”. For “MGSDKIHHHHHHLNGHGYHVTGTKTTQDGVEAARMSGIECYQLVLTPELECDADELSALLQVDVLIVTLPASRTAEGGEGYAQAVQQLVNMARVFHVPRIIFTSSTSVYGDGSGTVRETSPLQPTTVAGKTLVSLEQWLQHLPDISVDILRLAGLVGGDRHPGRFLAGKTNLPRGNHGVNLVHQEDVLAAILLLLKLPNGGHIYNLCATEHPARQDFYPEQARRLHVSTPQFAPVTDSSQGRIVDGQRICHELGFDYQYPNPSTMPLNAGESR”, the “soluble on expression in E. coli” value was “not soluble”.
